In assay [1] the target is TEAD4 (protein of the SPR and TR-FRET assays) (human). In words: SPR; peptides against TEAD4; Kd at equilibrium; peptide stocks in DMSO or in acetonitrile:(water + 1 mM TCEP).
Assay [2] has the same target. In words: FRET or BRET; TR-FRET assay with TEAD4; potency (IC50) of peptides; methodology in Fig. S8. On the technique in general: BRET reads energy transfer from a luciferase to a nearby fluorophore.
Assay [3] concerns the target wt^Sd (Scalloped 223–440), N-biotinylated-Avitagged (Drosophila melanogaster) (UniProt P30052). In words: SPR; N-biotinylated-Avitagged Sd (wild type or mutant) immobilised on sensor chips; Yki or Vg fragment as analyte; Kd at equilibrium by a standard SPR method. For orientation: Surface plasmon resonance follows binding to a sensor surface in real time, without labels.

The target of a further assay is TEAD4 (Homo sapiens) (UniProt Q15561). The conditions noted are these: cited from earlier work.
The target in assay [4] is N-terminally V5-tagged Asp272Ala^TEAD4 (full length) (human) (UniProt Q15561). In words: co-IP; V5-TEAD4 and (FLAG)3-VGLL2 co-transfected into HEK293FT YAP/TAZ double knockout cells; V5 immunoprecipitation, anti-FLAG Western blot; similar results in wild-type HEK293FT cells. In general terms: Immunoblotting shows a protein as a band on a membrane.
For assay [5], the target named is T1, wt^Sd (Scalloped 223–440), N-biotinylated-Avitagged (Drosophila melanogaster, UniProt P30052 223-440, biotin on the Avi-tag; acylated (incubated with myristoyl coenzyme A; purified as a mixture of acylated and non-acylated proteins)).
T1 construct: Immobilised on SPR sensor chips by the biotinylated Avi-tag; also called Sd^223–440; source: E. coli BL21(DE3) with a BirA plasmid, purified (HisTrap, HRV 3C cleavage, Superdex 75); not shown: His6, N-terminal, cleaved; Avi-tag, N-terminal, kept
T1 sequence (looked up): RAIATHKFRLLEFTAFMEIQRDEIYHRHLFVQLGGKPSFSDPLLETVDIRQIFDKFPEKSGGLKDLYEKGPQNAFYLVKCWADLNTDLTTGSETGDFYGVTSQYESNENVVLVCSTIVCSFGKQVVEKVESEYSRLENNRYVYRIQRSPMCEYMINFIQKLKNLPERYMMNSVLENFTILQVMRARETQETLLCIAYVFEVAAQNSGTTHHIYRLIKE
In words: SPR; N-biotinylated-Avitagged Sd (wild type or mutant) immobilised on sensor chips; Yki or Vg fragment as analyte; Kd at equilibrium by a standard SPR method. The following applies: both partners purified.

Assay [6] addresses T2, Tyr435His^Sd (Scalloped 223–440), biotinylated Avi-tagged (Drosophila melanogaster, UniProt P30052 223-440, Tyr435His, biotin on the Avi-tag; incubated with myristoyl coenzyme A).
T2 construct: Scalloped (Sd), Drosophila melanogaster, UniProt P30052, amino acids 223–440, with Tyr435His; source: E. coli BL21(DE3) with a BirA plasmid, purified (HisTrap, HRV 3C cleavage, Superdex 75); not shown: His6, N-terminal, cleaved; Avi-tag, N-terminal, kept
T2 sequence (looked up): T1 sequence (looked up) with Y213H
The assay is described as above. The conditions noted are these: both partners purified.

Assay [7] deals with T3, Asp276Ala^Sd (Scalloped 223–440), biotinylated Avi-tagged (Drosophila melanogaster, UniProt P30052 223-440, Asp276Ala, biotin on the Avi-tag; incubated with myristoyl coenzyme A).
T3 construct: Scalloped (Sd), Drosophila melanogaster, UniProt P30052, amino acids 223–440, with Asp276Ala; also called Asp246Ala^Sd (as printed in two sentences); source: E. coli BL21(DE3) with a BirA plasmid, purified (HisTrap, HRV 3C cleavage, Superdex 75); not shown: His6, N-terminal, cleaved; Avi-tag, N-terminal, kept
T3 sequence (looked up): T1 sequence (looked up) with D54A
The assay is described as above. The conditions noted are these: both partners purified.

For assay [8], the target named is T1, wt^Sd (Scalloped 223–440), …. The assay can be described thus: SPR; N-biotinylated-Avitagged Sd (wild type or mutant) immobilised on sensor chips; Kd by kinetic titration (Kd^KT). The following applies: both partners purified.
Assay [9] has as its target TEAD4 (protein of the SPR and TR-FRET assays) (human). The assay can be described thus: SPR; peptides against TEAD4; Kd at equilibrium; peptide stocks in DMSO or in acetonitrile:(water + 1 mM TCEP). This is another data set of the same source.
Assay [10] concerns the target T2, Tyr435His^Sd (Scalloped 223–440), …. In words: SPR; N-biotinylated-Avitagged Sd (wild type or mutant) immobilised on sensor chips; Kd by kinetic titration (Kd^KT). The following applies: both partners purified.
Assay [11] concerns the target T3, Asp276Ala^Sd (Scalloped 223–440), …. The description is as above. The following applies: both partners purified.

The source of these data is article PMC7566471, “A new perspective on the interaction between the Vg/VGLL1-3 proteins and the TEAD transcription factors” (Scientific Reports, 2020).

Positions count from the first letter of the chain named. Like-named read-outs stand apart in the source and are kept apart here.

One may read the Kd as the constant that tells how readily two partners part at equilibrium. What is called IC50 is the midpoint of a concentration-inhibition curve.

Chain of N-terminally V5-tagged Asp272Ala^TEAD4 (full length) (human) (Q15561 whole entry D272A): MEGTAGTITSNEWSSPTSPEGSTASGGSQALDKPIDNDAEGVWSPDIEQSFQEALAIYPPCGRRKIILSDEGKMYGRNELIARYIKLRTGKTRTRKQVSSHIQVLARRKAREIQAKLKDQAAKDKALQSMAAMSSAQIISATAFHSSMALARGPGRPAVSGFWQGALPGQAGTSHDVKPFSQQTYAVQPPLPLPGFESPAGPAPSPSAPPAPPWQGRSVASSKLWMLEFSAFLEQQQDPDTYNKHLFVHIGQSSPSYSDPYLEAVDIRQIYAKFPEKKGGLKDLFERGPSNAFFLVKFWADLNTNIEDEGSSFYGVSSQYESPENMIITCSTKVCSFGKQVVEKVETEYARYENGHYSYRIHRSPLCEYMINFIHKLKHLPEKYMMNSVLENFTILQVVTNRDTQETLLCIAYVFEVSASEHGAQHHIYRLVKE
Chain of TEAD4 (Homo sapiens) (Q15561 whole entry): as the sequence (Q15561 whole entry D272A) above, with A272D counted along it

As for “Flyman (hybrid peptide: β-strand:α-helix and Ω-loop of VGLL2 connected by the linker from Vg)”, the Kd in assay [1] stood at 4.3 nM.

In assay [2], “YAP^85–99 (from UniProt P46937 85-99) (peptide)” had an IC50 of 98000 nM. In [1], the Kd was 58000 nM.

For the molecule “Vg^298–337 (from UniProt Q26366 298-337) (peptide)”, in assay [3], the dissociation constant (Kd) was 61 nM.

Take VGLL1 27-51 (from UniProt Q99990): the Kd with TEAD4 (Homo sapiens) is 160 nM.

“(FLAG)3-delΩ^VGLL2 (full length with the Ω-loop deleted) (from UniProt Q8N8G2-1 1-317) (natural protein)” displayed a fold reduction of co-immunoprecipitation against wt^TEAD4 with wt^VGLL2 in assay [4] of 2 fold.

B1: Yki^30–146 (domain or fragment, Drosophila melanogaster, UniProt Q45VV3 30-146, looked up)
chain: SNNLVVRVNQDTDDNLQALFDSVLNPGDAKRPLQLPLRMRKLPNSFFTPPAPSHSRANSADSTYDAGSQSSINIGNKASIVQQPDGQSPIAAIPQLQIQPSPQHSRLAIHHSRARSS
notes: Yorkie (Yki), Drosophila melanogaster, UniProt Q45VV3, amino acids 30–146; also called Yorkie 30–146; source: E. coli (BL21(DE3) and NiCo21(DE3) are both named), purified (HisTrap, HRV 3C cleavage, Superdex 75); not shown: His-tag, N-terminal, cleaved; strep-tagII, N-terminal, cleaved; rubredoxin, N-terminal, cleaved
For B1, the Kd in assay [5] worked out at 13 nM; in [6], 13000 nM; in assay [7] it was 5000 nM; in [8], 13 nM.

B2: VGLL2^85–108 (peptide)
peptide: Ac-CVLFTYFQGDISSVVDEHFSRALS-NH2
Consider B2, for which the IC50 in assay [2] came out at 340 nM. Moreover, in assay [1], the Kd stood at 590 nM.

B3: Vg^288–337 (peptide, UniProt Q26366 288-337, looked up)
peptide: Ac-CVVFTNYSGDTASQVDEHFSRALNYNNKDSKESSSPMSNRNFPPSFWNSN-NH2
notes: source: synthetic peptide, bought: Biosynthan
Take B3: the Kd in [5] was under 2 nM; in assay [9], 4.1 nM; in assay [1], 3.1 nM; in assay [8], 1.6 nM.

B4: VGLL2^85–149 (peptide)
peptide: Ac-CVLFTYFQGDISSVVDEHFSRALSQPSSYSPSCTSSKAPRSSGPWRDCSFPMSQRSFPASFWNSA-NH2
In turn, B4 returned an IC50 in assay [2] of 6.3 nM. The Kd in [1] is 34 nM.

B5: Vg^263–382 (domain or fragment, Drosophila melanogaster, UniProt Q26366 263-382, looked up)
chain: ETPMGSGGGGLAGSGQGQAQYLSASCVVFTNYSGDTASQVDEHFSRALNYNNKDSKESSSPMSNRNFPPSFWNSNYVHPIPAPTHHQVSDLYGTATDTGYATDPWVPHAAHYGSYAHAAH
notes: Vestigial (Vg), Drosophila melanogaster, UniProt Q26366, amino acids 263–382; also called Vestigial 263–382; source: E. coli (BL21(DE3) and NiCo21(DE3) are both named), purified (HisTrap, HRV 3C cleavage, Superdex 75); not shown: His-tag, N-terminal, cleaved; strep-tagII, N-terminal, cleaved; rubredoxin, N-terminal, cleaved
For B5, the Kd is under 2 nM in assay [5], 24 nM in assay [10], 5.5 nM in [11] and 0.38 nM in assay [8].

B6: Vg^288–311 (peptide, UniProt Q26366 288-311, looked up)
peptide: Ac-CVVFTNYSGDTASQVDEHFSRALN-NH2
notes: Vestigial (Vg), Drosophila melanogaster, UniProt Q26366, residues 288–311 (TONDU domain); also called TONDU domain of Vg; β-strand:α-helix region of Vg; source: synthetic peptide, bought: Biosynthan
Turning to B6, in assay [5], the Kd was determined as 291 nM.

B7: Yki^31–79 (peptide, UniProt Q45VV3 31-79, looked up)
peptide: Ac-NNLVVRVNQDTDDNLQALFDSVLNPGDAKRPLQLPLRMRKLPNSFFTPP-NH2
notes: Yorkie (Yki), Drosophila melanogaster, UniProt Q45VV3, residues 31–79; only Yki 30–146 and Vg 263–382 are described as recombinant; source: synthetic peptide, bought: Biosynthan
As for B7, in assay [5], the Kd came to 23 nM.

B8: Yki^41–79 (peptide, UniProt Q45VV3 41-79, looked up)
peptide: Ac-TDDNLQALFDSVLNPGDAKRPLQLPLRMRKLPNSFFTPP-NH2
notes: Yorkie (Yki), Drosophila melanogaster, UniProt Q45VV3, residues 41–79 (lacks the putative β-strand); source: synthetic peptide, bought: Biosynthan
As for B8, in assay [5], the Kd worked out at 69 nM.

B9: VGLL2^135–149 (peptide)
peptide: Ac-PMSQRSFPASFWNSA-NH2
With B9, the IC50 in assay [2] turned out to be 133000 nM.

B10: Vg^323–337 (peptide)
peptide: Ac-PMSNRNFPPSFWNSN-NH2
In turn, B10 showed an IC50 in [2] of 160000 nM.
